Measurements taken from the supplement of paper PMC10567573.

B1: NP_006221.1 (parent)
chain: CQPISFSGFGAEDDDLGGLGLGP

Variants of: B1
Test: protein stability index of a GFP-peptide fusion (GPS, HEK-293T) (PSI 1-6); higher = more stable
Conditions: c terminus: native
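Note: lentivirally expressed fusion library, cells FACS-sorted into six equal-sized GFP/DsRed ratio bins, PSI computed from sequencing read fractions per bin weighted by bin number.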

Protein stability index: each site, then its substitutions
G8: F 2.39, Q 1.87, E 2.03, M 2.23
I4: P 2.2, W 2.25, G 2.29, C 2.43
L21: Q 4.85, F 4, H 4.76, C 3.02, A 4.88, T 3.94, R 2.74, E 5.34
L19: W 2.78, E 2.49, G 2.87, F 2.51, I 2.13, V 2.11, N 2.54
F9: K 2.4, I 2.35, P 3.23, E 2.98, S 2.56, Y 2.01
G20: E 2.81, K 4.31, Q 2.69, A 2.29, V 3.37, M 2.77, Y 2.83, N 3.93, W 3.19
A11: D 2.37, C 2.08, Q 2.32, T 2.26, G 2.36, L 1.81, H 2.37
G22: S 2.1, V 2.11, N 3.35, L 2.46, W 2.46, Y 2.59, D 2.15, R 3.32, C 2.25
D15: F 2.32, Q 2.67, Y 2.35, W 2.44, H 2.08, A 2.28, N 2.18, G 2.57, C 2.18, K 2.2
G18: N 2.16, L 2.24, D 2.19, Q 2, R 2.31, V 2.17, H 1.99, E 2.42, K 1.93
D13: N 2.2, E 2.22, T 2.28, W 2.31, G 2.53, I 2.5, F 2.54, M 2.24, K 1.93, R 2.04
S7: D 3.66, K 2.77, G 2.87, F 2.48, L 2.43, H 3.06, N 3.37, R 2.56
P23: L 3.57, Y 2.25, K 4.66, S 4.5, C 3.17, Q 4.25, M 2.91, A 2.17
L16: R 2.18, M 2.45, S 2.28
S5: H 2.42, T 2.41, E 2.99, P 2.42, F 2.29, L 2.25, W 2.58, A 2.77, M 2.46
P3: V 2.14, H 2.06, T 2.09, Y 2.01, G 2.3, D 2.2, A 2.19, L 2.1, E 2.46
G17: A 2.16, V 1.99, E 2.36, S 2.26, W 2.46, C 2.2, I 1.93, N 2.36
F6: R 3.86, W 2.22, H 3.48, K 4.18, D 4.57, E 4.72, G 4.16
C1: E 2.53, T 2.14, W 1.91, Y 2.18
E12: G 2.5, N 2.32, M 2.25, L 1.88
G10: E 2.08, W 1.9, F 2.06, Y 1.94, M 2.29, K 1.96, R 2.21, P 1.83, N 2.04
Q2: E 2.43, W 2.13, C 2.14, H 2.26, A 1.98, F 1.99
D14: R 1.99, Y 2.12, H 2.27, Q 2.11, M 2.29, N 2.33, F 2.51, K 2.46, E 2.17
